Publication PMC6358110, “Role of SpaO in the assembly of the sorting platform of a Salmonella type III secretion system” (PLoS Pathogens, 2019)

B1: SpaO^S, short form of SpaO composed of the C-terminal 101 amino acids (domain or fragment)
chain: VETLDIQHIEEENNTTETAETLPGLNQLPVKLEFVLYRKNVTLAELEAMGQQQLLSLPTNAELNVEIMANGVLLGNGELVQMNDTLGVEIHEWLSESGNGE
notes: SpaO^S, internally translated product of spaO starting at the internal GTG codon 203; the C-terminal 101 amino acids of SpaO, S. Typhimurium; Translated from an internal GTG start codon, so the first residue is probably Met rather than Val (surmised); source: E. coli Lemo21(DE3) harboring plasmid pSB3775, co-purified with His-tagged SpaO^L (Ni-NTA, Superose 6)

Legend:
[1] = target: FLAG-tagged SpaO^L67pBpa (Salmonella enterica Typhimurium SL1344) (UniProt P40699); test: cross-linking; site-specific in vivo photo-cross-linking: pBpa in SpaO, live S. Typhimurium in PBS irradiated at 365 nm; whole cell lysates on SDS-PAGE, anti-FLAG western blot, with and without UV
[2] = target: T1, SpaO^L, full length product of spaO, N-terminal His-tagged (S. Typhimurium, UniProt P40699 1-303); test: SEC; N-terminal His-tagged SpaO made in E. coli, purified on Ni-NTA, run on Superose 6 10/300 GL; fractions analysed by SDS-PAGE and Coomassie; SpaO^L and SpaO^S made from one plasmid and co-purified; settings: both partners purified
T1 construct: SpaO, full length product (SpaO^L) of the spaO gene, S. Typhimurium SPI-1 T3SS sorting platform component; The same plasmid gives both SpaO^L and the internally translated SpaO^S; also called His-tagged SpaO; source: E. coli Lemo21(DE3) harboring plasmid pSB3775, purified (Ni-NTA, Superose 6); not shown: His tag, N-terminal, kept
T1 sequence: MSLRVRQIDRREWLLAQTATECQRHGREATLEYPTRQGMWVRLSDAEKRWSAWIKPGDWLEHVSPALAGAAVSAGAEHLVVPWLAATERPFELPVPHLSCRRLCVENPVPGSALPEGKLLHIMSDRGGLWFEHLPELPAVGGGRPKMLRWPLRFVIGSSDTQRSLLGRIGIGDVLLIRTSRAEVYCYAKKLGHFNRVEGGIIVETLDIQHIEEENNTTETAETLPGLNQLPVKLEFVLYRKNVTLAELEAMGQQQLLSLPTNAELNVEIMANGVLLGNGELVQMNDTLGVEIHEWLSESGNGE

Molecule | stoichiometry N [1] | stoichiometry N [2] [SpaO^S per SpaO^L]
FLAG-tagged SpaO^L67pBpa (from UniProt P40699 1-303) (natural protein) | 4 | –
B1 | – | 2
